Laboratory results: ChEMBL document CHEMBL2429837, “Identification of cryptotanshinone as an inhibitor of oncogenic protein tyrosine phosphatase SHP2 (PTPN11)” (J Med Chem, 2013)

Experiments:
Conditions in all cases: Homo sapiens; 25 uM
[1] = substrate: C[C@H]1COC2=C1C(=O)C(=O)c1c2ccc2c1CCCC2(C)C
[2] = substrate: C[C@H]1COC2=C1C(=O)C(=O)c1c2ccc2c1CCCC2(C)C; remark: listed apart in the source
[3] = substrate: C[C@H]1COC2=C1C(=O)C(=O)c1c2ccc2c1CCCC2(C)C; remark: listed apart in the source
[4] = substrate: C[C@H]1COC2=C1C(=O)C(=O)c1c2ccc2c1CCCC2(C)C; remark: listed apart in the source

B1: Tyrosine-protein phosphatase non-receptor type 11 (Homo sapiens), Q06124 (protein)
chain: MTSRRWFHPNITGVEAENLLLTRGVDGSFLARPSKSNPGDFTLSVRRNGAVTHIKIQNTGDYYDLYGGEKFATLAELVQYYMEHHGQLKEKNGDVIELKYPLNCADPTSERWFHGHLSGKEAEKLLTEKGKHGSFLVRESQSHPGDFVLSVRTGDDKGESNDGKSKVTHVMIRCQELKYDVGGGERFDSLTDLVEHYKKNPMVETLGTVLQLKQPLNTTRINAAEIESRVRELSKLAETTDKVKQGFWEEFETLQQQECKLLYSRKEGQRQENKNKNRYKNILPFDHTRVVLHDGDPNEPVSDYINANIIMPEFETKCNNSKPKKSYIATQGCLQNTVNDFWRMVFQENSRVIVMTTKEVERGKSKCVKYWPDEYALKEYGVMRVRNVKESAAHDYTLRELKLSKVGQGNTERTVWQYHFRTWPDHGVPSDPGGVLDFLEEVHHKQESIMDAGPVVVHCSAGIGRTGTFIVIDILIDIIREKGVDCDIDVPKTIQMVRSQRSGMVQTEAQYRFIYMAVQHYIETLQRRIEEEQKSKRKGHEYTNIKYSLADQTSGDQSPLPPCTPTPPCAEMREDSARVYENVGLMQQQKSFR
[1]
  Vmax: 6.96 µM/min
[2]
  Km: 170 µM
[3]
  kcat: 0.36 s⁻¹
[4]
  kcat/Km: 2150 M⁻¹ s⁻¹
